Test results taken from IntAct's records for PubMed 19918049.

B1: Serine/threonine-protein kinase haspin (Homo sapiens), Q8TF76-1 (parent)
chain: MAASLPGPGSRLFRTYGAADGRRQRRPGREAAQWFPPQDRRRFFNSSGSSDASIGDPSQSDDPDDPDDPDFPGSPVRRRRRRPGGRVPKDRPSLTVTPKRWKLRARPSLTVTPRRLGLRARPPQKCSTPCGPLRLPPFPSRDSGRLSPDLSVCGQPRDGDELGISASLFSSLASPCPGSPTPRDSVISIGTSACLVAASAVPSGLHLPEVSLDRASLPCSQEEATGGAKDTRMVHQTRASLRSVLFGLMNSGTPEDSEFRADGKNMRESCCKRKLVVGNGPEGPGLSSTGKRRATGQDSCQERGLQEAVRREHQEASVPKGRIVPRGIDRLERTRSSRKSKHQEATETSLLHSHRFKKGQKLGKDSFPTQDLTPLQNVCFWTKTRASFSFHKKKIVTDVSEVCSIYTTATSLSGSLLSECSNRPVMNRTSGAPSSWHSSSMYLLSPLNTLSISNKKASDAEKVYGECSQKGPVPFSHCLPTEKLQRCEKIGEGVFGEVFQTIADHTPVAIKIIAIEGPDLVNGSHQKTFEEILPEIIISKELSLLSGEVCNRTEGFIGLNSVHCVQGSYPPLLLKAWDHYNSTKGSANDRPDFFKDDQLFIVLEFEFGGIDLEQMRTKLSSLATAKSILHQLTASLAVAEASLRFEHRDLHWGNVLLKKTSLKKLHYTLNGKSSTIPSCGLQVSIIDYTLSRLERDGIVVFCDVSMDEDLFTGDGDYQFDIYRLMKKENNNRWGEYHPYSNVLWLHYLTDKMLKQMTFKTKCNTPAMKQIKRKIQEFHRTMLNFSSATDLLCQHSLFK

Variants of: B1
Details: with h32_mouse H3c13, P84228

| Variant | effect of a mutation on the interaction |
| --- | --- |
| G713F | decreasing interaction |
| E492A | decreasing interaction |
| H651A | decreasing interaction |
| D709N | decreasing interaction |
| D707L | decreasing interaction |
